Results on one molecule are retold here after patent US20050054043A1 (UNIVERSITY OF VERMONT, published 2005).

Assay [1] has as its target T1, transferrin receptor on HeLa S3 cells (human, UniProt P02786 1-760).
T1 construct: whole, on cells; also called human receptors; cell-surface transferrin receptors
The assay can be described thus: competition of unlabeled transferrin against radioiodinated Boehringer Mannheim hTf on HeLa S3 cells, LIGAND fit (apparent Kd').
Protocol: Cells were routinely grown in DMEM-F-12 containing 10% newborn calf serum. Prior to beginning a binding experiment, the cells were harvested with Versene, and taken up in Joklik's minimum essential medium-20 mM Hepes-2% BSA (JMEM-BSA). Endogenous bovine transferrin was removed from the HeLa cells by incubation for 10 min at 37° C. at a 5-fold dilution with JMEM-BSA. After centrifugation of the cells and removal of the supernatant, this procedure was repeated twice. […] After 30 min of incubation at 37° C. with gentle shaking, portions of the cell suspension (3×100 μL) were pipetted into microfuge tubes containing 0.9 mL of ice-cold JMEM-BSA over 300 μL of dibutyl phthalate and centrifuged for 2 min in a Beckman microfuge. The aqueous and organic phases were aspirated to just above the cell pellet. The bottom of the tube containing the cell pellet was released by a hot wire into a plastic tube (12×75 mm) and assayed for radioactivity.

For assay [2], the target named is T1, transferrin receptor on HeLa S3 cells. The assay can be described thus: direct equilibrium binding of radioiodinated diferric transferrin to HeLa S3 cells, LIGAND fit (apparent Kd').
Protocol: After 30 min of incubation at 37° C. with gentle shaking, portions of the cell suspension (3×100 μL) were pipetted into microfuge tubes containing 0.9 mL of ice-cold JMEM-BSA over 300 μL of dibutyl phthalate and centrifuged for 2 min in a Beckman microfuge. The aqueous and organic phases were aspirated to just above the cell pellet. The bottom of the tube containing the cell pellet was released by a hot wire into a plastic tube (12×75 mm) and assayed for radioactivity.

T1 sequence (P02786 whole entry): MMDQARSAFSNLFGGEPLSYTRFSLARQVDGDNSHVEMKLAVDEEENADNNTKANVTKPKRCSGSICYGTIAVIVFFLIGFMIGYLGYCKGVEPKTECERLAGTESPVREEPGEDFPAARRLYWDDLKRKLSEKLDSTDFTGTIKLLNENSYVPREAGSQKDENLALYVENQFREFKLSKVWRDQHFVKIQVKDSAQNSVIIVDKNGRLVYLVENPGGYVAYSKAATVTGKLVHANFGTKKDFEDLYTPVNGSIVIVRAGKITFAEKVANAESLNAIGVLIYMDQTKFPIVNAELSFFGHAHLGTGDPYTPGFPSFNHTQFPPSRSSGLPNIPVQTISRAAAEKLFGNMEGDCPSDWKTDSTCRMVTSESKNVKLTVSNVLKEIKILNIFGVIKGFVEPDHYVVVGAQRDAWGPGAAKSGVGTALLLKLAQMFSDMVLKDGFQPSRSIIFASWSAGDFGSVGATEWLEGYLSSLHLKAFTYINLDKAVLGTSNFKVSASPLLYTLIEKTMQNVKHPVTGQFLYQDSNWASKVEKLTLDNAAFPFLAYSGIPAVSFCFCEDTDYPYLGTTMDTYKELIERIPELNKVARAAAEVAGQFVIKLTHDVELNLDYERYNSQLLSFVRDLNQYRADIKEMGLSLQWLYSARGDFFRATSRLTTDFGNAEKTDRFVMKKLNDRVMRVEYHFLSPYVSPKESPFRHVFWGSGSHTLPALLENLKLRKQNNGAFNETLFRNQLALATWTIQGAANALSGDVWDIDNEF

B1: hTf N413D/N611D mutant (recombinant nonglycosylated human serum transferrin), diferric (ligand)
chain: VPDKTVRWCAVSEHEATKCQSFRDHMKSVIPSDGPSVACVKKASYLDCIRAIAANEADAVTLDAGLVYDAYLAPNNLKPVVAEFYGSKEDPQTFYYAVAVVKKDSGFQMNQLRGKKSCHTGLGRSAGWNIPIGLLYCDLPEPRKPLEKAVANFFSGSCAPCADGTDFPQLCQLCPGCGCSTLNQYFGYSGAFKCLKDGAGDVAFVKHSTIFENLANKADRDQYELLCLDNTRKPVDEYKDCHLAQVPSHTVVARSMGGKEDLIWELLNQAQEHFGKDKSKEFQLFSSPHGKDLLFKDSAHGFLKVPPRMDAKMYLGYEYVTAIRNLREGTCPEAPTDECKPVKWCALSHHERLKCDEWSVNSVGKIECVSAETTEDCIAKIMNGEADAMSLDGGFVYIAGKCGLVPVLAENYDKSDNCEDTPEAGYFAVAVVKKSASDLTWDNLKGKKSCHTAVGRTAGWNIPMGLLYNKINHCRFDEFFSEGCAPGSKKDSSLCKLCMGSGLNLCEPNNKEGYYGYTGAFRCLVEKGDVAFVKHQTVPQNTGGKNPDPWAKNLNEKDYELLCLDGTRKPVEEYANCHLARAPNHAVVTRKDKEACVHKILRQQQHLFGSDVTDCSGNFCLFRSETKDLLFRDDTVCLAKLHDRNTYEKYLGEEYVKAVGNLRKCSTSSLLEACTFRRP
modifications: non-glycosylated; diferric (iron-saturated); radioiodinated in Table 2 (A), unlabeled in (B)
notes: Full-length human transferrin with both N-glycosylation sites changed to Asp, expressed in BHK cells; Positions use mature-protein numbering; also called hTf(N/D)
As for B1, the Kd in assay [1] was 19.8 nM; in assay [2] it was 23.4 nM.
